# Reference: US12709637B2, “Regulated synthetic gene activation systems” (TRUSTEES OF BOSTON UNIVERSITY, priority 2023, dated 2026)
# Columns and labels:
# [1] = tested on: mCherry reporter in Primary T cells; assay: 4OHT inducible systems driving mCherry reporter in Primary T cells; assay type: cell-based
# From the text: Primary T cells were co-transduced with synZiFTR 2.0 and a minimally expressed mCherry reporter.
# [2] = tested on: mCherry reporter in Primary T cells; assay: GZV inducible systems driving mCherry reporter in Primary T cells; assay type: cell-based
# Protocol: Primary T cells were co-transduced with synZiFTR 2.0 and a minimally expressed mCherry reporter. Upon addition of GZV, the synZiFTR construct activated mCherry expression, which was measured on a flow cytometer (see e.g., FIG. 10).
molecule,measurement,setting,value
"3Z: transcriptional activator, SEQ ID NO: 303; tested with TIMs on N terminus (protein) MAEEFVTLKDVGMDFTLGDWEQLGLEQGDTFWDTALDNCQDLFLLDPPRPNLTSHPDGSEDLEPLAGGSPEATSMAEEFVTLKDVGMDFTLGDWEQLGLEQGDTFWDTALDNCQDLFLLDPPRPNLTSHPDGSEDLEPLAGGSPEATSMAEEFVTLKDVGMDFTLGDWEQLGLEQGDTFWDTALDNCQDLFLLDPPRPNLTSHPDGSEDLEPLAGGSPEATS",activation potency of the transcriptional activator on fusing TIMs domains on the N terminus,[1],enhanced activation potency
"NFZ: transcriptional activator, SEQ ID NO: 57, domains from NCOA3, FOXO3 and ZNF473; tested with TIMs on N terminus (protein, listed as Homo sapiens) EGQSDERALLDQLHTLLSNTDATGLEEIDRALGIPELVNQGQALEPKQGGGGSGHEKFPSDLDLDMFNGSLECDMESIIRSELMDADGLDFNFDSGGGGSGFVTLKDVGMDFTLGDWEQLGLEQGDTFWDTALDNCQDLFLLDPP",activation potency of the transcriptional activator on fusing TIMs domains on the N terminus,[1],enhanced activation potency
same,activation potency of the transcriptional activator on fusing TIMs domains on the N terminus,[2],enhanced activation potency
